Experimental data as given in PMC11375898 (Frontiers in Pharmacology, 2024).
Like-named read-outs stand apart in the source and are kept apart here.

Assays:
[1] = human, in vivo; cited from earlier work
[2] = design: method as in Chen et al., 2024; conditions: week 16, ref Chen et al., 2024, cited from earlier work
[3] = in vivo
Experimental: The duration of each dose was 0.06 mg for three consecutive days, 0.1 mg for three consecutive days, 0.14 mg for five consecutive days, and 0.2 mg for five consecutive days (Figure 1).
Blood samples (3 mL) were collected in vacuum tubes containing EDTA-K2 at D-1 and at pre-dosing (0 h) and 5, 10, 15, 20, 25, 30, 40, 50, 60, 90, 120, 150 and 180 min after first administration on D6, D7, D11, D12, and D16. PK blood samples were collected at the time point corresponding to the administration date for blank baseline correction on D-1. The vacuum tubes were pre-cooled in the refrigerator (2°C–8°C) for at least 0.5–1 h before use. As the stabilizer, 30 μL DPP IV inhibitor (10 μL/mL) was immediately added into the blood. The stabilizer-spiked blood samples were kept with wet ice during transportation and were centrifuged at 3,000 rpm for 10 min at 4°C to separate the plasma. Samples were stored at −80°C until analysis.
The standard curve ranged from 2.0 to 100.0 pM. The accuracy of intra-batch and inter-batch assays values were −16.7%–20.0% and −6.7%–3.2%, respectively.
The primary PK parameters were maximum observed concentration (Cmax), the area under concentration-time curve from 0 to the last measurable concentration (AUC0-t) and AUC0-inf, whereas the secondary PK parameters were median time to reach maximum concentration (Tmax), terminal half-life time (t1/2), Vz/F, apparent clearance rate (CL/F), terminal elimination rate (λz) and accumulation index (Rac).
Paired t-tests were used to compare the primary PK parameters between the 0.14 mg and 0.2 mg dose groups. Three doses (0.1, 0.14 and 0.2 mg) were evaluated for proportional dose-response relationships using power model. […] Statistical analysis was performed using SAS 9.4 (SAS Institute, Cary, NC, United States).

[4] = tested on: adult subjects with overweight/obesity; conditions: in vivo
Experimental: (§1) This single center, open, multiple ascending dose study was conducted at the Phase I Clinical Research Center of the Affiliated Hospital of Qingdao University, Qingdao, China. […] The duration of each dose was 0.06 mg for three consecutive days, 0.1 mg for three consecutive days, 0.14 mg for five consecutive days, and 0.2 mg for five consecutive days (Figure 1). All volunteers were hospitalized 2 days before the first dosing and placed on a standardized diet during hospitalization. All participants were required to fast overnight before the first dosing.
(§2) Safety assessments were conducted by monitoring physical examinations, vital signs (blood pressure, pulse rate, body temperature and respiratory rate), 12-lead ECG, clinical laboratory assays (blood routine, blood biochemistry and urine routine) and AEs. AEs were evaluated by the investigator throughout the study and the severity of AEs was defined in accordance with the Common Terminology Criteria for the Classification of Adverse Events of the National Cancer Institute (NCI CTCAE) version 5.0.

[5] = tested on: adult subjects with overweight/obesity; assay: Safety assessment (adverse events, NCI CTCAE 5.0), phase I multiple ascending dose trial; conditions: N = 16
Experimental: as §1, §2

[6] = Total, 0.06-0.2 mg sc three times daily

recombinant human GLP-1 (7-36) [beinaglutide]
0: AEs leading to death, E (number of events) ([5]; 0.06 mg sc three times daily) | AEs leading to death, n (subjects with event) ([5]; 0.06 mg sc three times daily) | Drug-related AEs leading to death, E (number of events) ([5]; 0.06 mg sc three times daily) | Drug-related AEs leading to death, n (subjects with event) ([5]; 0.06 mg sc three times daily) | AEs leading to death, E (number of events) ([5]; 0.1 mg sc three times daily) | AEs leading to death, n (subjects with event) ([5]; 0.1 mg sc three times daily) | Drug-related AEs leading to death, E (number of events) ([5]; 0.1 mg sc three times daily) | Drug-related AEs leading to death, n (subjects with event) ([5]; 0.1 mg sc three times daily) | AEs leading to death, E (number of events) ([5]; 0.14 mg sc three times daily) | AEs leading to death, n (subjects with event) ([5]; 0.14 mg sc three times daily) | Drug-related AEs leading to death, E (number of events) ([5]; 0.14 mg sc three times daily) | Drug-related AEs leading to death, n (subjects with event) ([5]; 0.14 mg sc three times daily) | AEs leading to death, E (number of events) ([5]; 0.2 mg sc three times daily) | AEs leading to death, n (subjects with event) ([5]; 0.2 mg sc three times daily) | Drug-related AEs leading to death, E (number of events) ([5]; 0.2 mg sc three times daily) | Drug-related AEs leading to death, n (subjects with event) ([5]; 0.2 mg sc three times daily) | AEs leading to death, E (number of events) [5, 6] | AEs leading to death, n (subjects with event) [5, 6] | Drug-related AEs leading to death, E (number of events) [5, 6] | Drug-related AEs leading to death, n (subjects with event) [5, 6]
6.81 to 7.66 L/min: arithmetic mean of CL/Fadj ([3]; sc)
1.13: Estimate of slope β1, Ln (AUC0-t,adj), proportional dose-response (power model) [3] | Estimate of slope β1, Ln (Cmax), proportional dose-response (power model) [3]
292.55 to 401.87 L: arithmetic mean of Vz/Fadj ([3]; sc)
≤ 1 h: time to relief of nausea [4]
1.01: Estimate of slope β1, Ln (AUC0-inf), proportional dose-response (power model) [3]
−6.9%: mean weight reduction ([2]; female participants)
−4.7%: mean weight reduction ([2]; male participants)
10 to 15 min: median of Tmax ([3]; sc) | median of Tmax,adj ([3]; sc)
379 L: apparent volume of distribution (Vz/F) [1]
0.0%: AEs leading to death, % of subjects with event ([5]; 0.06 mg sc three times daily) | Drug-related AEs leading to death, % of subjects with event ([5]; 0.06 mg sc three times daily) | AEs leading to death, % of subjects with event ([5]; 0.1 mg sc three times daily) | Drug-related AEs leading to death, % of subjects with event ([5]; 0.1 mg sc three times daily) | AEs leading to death, % of subjects with event ([5]; 0.14 mg sc three times daily) | Drug-related AEs leading to death, % of subjects with event ([5]; 0.14 mg sc three times daily) | AEs leading to death, % of subjects with event ([5]; 0.2 mg sc three times daily) | Drug-related AEs leading to death, % of subjects with event ([5]; 0.2 mg sc three times daily) | AEs leading to death, % of subjects with event [5, 6] | Drug-related AEs leading to death, % of subjects with event [5, 6]
29.64 to 42.35 min: arithmetic mean of t1/2, adj ([3]; sc)
